Data reported in US20230226223A1 (SOLA BIOSCIENCES, published 2023).
Like-named read-outs stand apart in the source and are kept apart here.

Tests used:
Assay in all cases: cell-based or functional assay
[1] = target: GFP-HTTQ74 reporter construct
[2] = target: GFP-HTTQ74 reporter construct; remark: listed apart in the source
[3] = target: GFP-HTTQ74 reporter construct; remark: listed apart in the source
[4] = target: GFP-HTTQ74 reporter construct; remark: listed apart in the source
[5] = target: GFP-HTTQ74 reporter construct; remark: listed apart in the source

B1: Construct 61, JC7-QBP1-QBP1 (designed binder)
chain: MDYYKILGVDKNASEDEIKKAYRKRALMHHPDRHSGASAEVQKEEEKKFKEVGEAFTILSDPKKKTRYDSGQDIGGGGSGGGGSGGGGSAAASNWKWWPGIFDLEGDYKDDDDKGSRAAASNWKWWPGIFDLE
Reduction (%) of protein aggregation [1]: 89%

B2: Construct 15, JB1-2XQBP1 (no flexible linker) (designed binder)
chain: MGKDYYQTLGLARGASDEEIKRAYRRQALRYHPDKNKEPGAEEKFKEIAEAYDVLSDPRKREIFDRYGEEGLKGSDIAAASNWKWWPGIFDGLESNWKWWPGIFD
% Aggregation (relative to Q74 alone), filter trap assay [2]: 24.5%

B3: Construct 62, DnaJ-QBP1-QBP1 (designed binder)
chain: MAKQDYYEILGVSKTAEEREIRKAYKRLAMKYHPDRNQGDKEAEAKFKEIKEAYEVLTDSQKRAAYDQYGHADIGGGGSGGGGSGGGGSAAASNWKWWPGIFDLEGDYKDDDDKGSRAAASNWKWWPGIFDLE
Reduction (%) of protein aggregation [1]: 15.7%

B4: Construct 4, JB1-2XQBP1 (designed binder)
chain: MGKDYYQTLGLARGASDEEIKRAYRRQALRYHPDKNKEPGAEEKFKEIAEAYDVLSDPRKREIFDRYGEEGLKGSDIGGGGSGGGGSGGGGSGGGGSAAASNWKWWPGIFDGLESNWKWWPGIFD
% Aggregation (relative to Q74 alone), filter trap assay [3]: 29.7% | % Aggregation (relative to Q74 alone), filter trap assay [4]: 9.86% | Reduction of Aggregation (%), filter trap assay [5]: 24.9% | % Aggregation (relative to Q74 alone), filter trap assay [2]: 24.9%

B5: Construct 34, JB1-QBP1-QBP1 (1) (designed binder)
chain: MGKDYYQTLGLARGASDEEIKRAYRRQALRYHPDKNKEPGAEEKFKEIAEAYDVLSDPRKREIFDRYGEEGLKGSGGGGSGGGGSGGGGSGGGGSAAASNWKWWPGIFDLEGDYKDDDDKGSRAAASNWKWWPGIFDLE
Reduction (%) of protein aggregation [1]: 96.1% | Reduction of Aggregation (%), filter trap assay [5]: 96.3%

B6: Construct 10, JB1(19-43)-2XQBP1 (designed binder)
chain: MGTGSEFEIKRAYRRQALRYHPDKNKEPGAEEDIGGGGSGGGGSGGGGSGGGGSAAASNWKWWPGIFDGLESNWKWWPGIFD
% Aggregation (relative to Q74 alone), filter trap assay [3]: 91%

B7: Construct 16, JB1-2XQBP1 (rigid linker) (designed binder)
chain: MGKDYYQTLGLARGASDEEIKRAYRRQALRYHPDKNKEPGAEEKFKEIAEAYDVLSDPRKREIFDRYGEEGLKGSDIEAAAKAAASNWKWWPGIFDGLESNWKWWPGIFD
% Aggregation (relative to Q74 alone), filter trap assay [2]: 17.6%

B8: Construct 14, JB1(1-108)-2XQBP1 (designed binder)
chain: MGKDYYQTLGLARGASDEEIKRAYRRQALRYHPDKNKEPGAEEKFKEIAEAYDVLSDPRKREIFDRYGEEGLKGSGPSGGSGGGANGTSFSYTFHGDPHAMFAEFFGGDIGGGGSGGGGSGGGGSGGGGSAAASNWKWWPGIFDGLESNWKWWPGIFD
% Aggregation (relative to Q74 alone), filter trap assay [3]: 32%

B9: Construct 59, JB13-QBP1-QBP1 (designed binder)
chain: MGQDYYSVLGITRNSEDAQIKQAYRRLALKHHPLKSNEPSSAEIFRQIAEAYDVLSDPMKRGIYDKFGEEGLKGGDIGGGGSGGGGSGGGGSAAASNWKWWPGIFDLEGDYKDDDDKGSRAAASNWKWWPGIFDLE
Reduction (%) of protein aggregation [1]: -27%

B10: Construct 12, JB1(1-57)-2XQBP1 (designed binder)
chain: MGKDYYQTLGLARGASDEEIKRAYRRQALRYHPDKNKEPGAEEKFKEIAEAYDVLSDDIGGGGSGGGGSGGGGSGGGGSAAASNWKWWPGIFDGLESNWKWWPGIFD
% Aggregation (relative to Q74 alone), filter trap assay [3]: 40.3%
